83 substances from the supplement of paper PMC10598134 can be followed below.

A short description of the data set: collision cross section of unmodified peptide (TIMS, N2, iRT-aligned); higher = larger / more extended gas-phase ion. On the procedure: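 Unmodified synthetic counterpart peptides (ProteomeTools / JPT), analysed by nanoLC-TIMS-QTOF (dda-PASEF). 1/K0 was aligned run-wise to spiked iRT peptides and converted to CCS in N2 (Mason-Schamp). Values are the mean of 1-3 technical replicates for the most abundant feature at each charge state. The same unmodified peptide is repeated across rows and is averaged.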

± gives the standard deviation.

Substance YEQEHAAIQDKLFQVAK returned a collision cross section (charge state: 3) of 555.79 ± 2.3 Å².

The substance DVNAAIAAIKTK displayed a collision cross section (charge state: 2) of 391.89 ± 2.3 Å² and a collision cross section (charge state: 3) of 461.97 ± 1.6 Å². The corresponding values for SLGEPAAGEGSAKR are 397.19 ± 1.1 Å² and 478.87 ± 5.9 Å². On to RFGGPVHHQAQR, for which the collision cross section is listed as 386.03 ± 0.46 Å² (charge state: 2) and 495.72 ± 1.2 Å² (charge state: 3). With THLGEALAPLSK, the collision cross section was determined as 380.02 ± 0.67 Å² (charge state: 2) and 462.22 ± 1 Å² (charge state: 3). In turn, STCTYVGAAK registered a collision cross section (charge state: 2) of 334.15 ± 0.48 Å². For the setting “charge state: 2”, PDTQYTGR registered a collision cross section of 315.91 ± 0.73 Å². In the case of IVFSGNLFQHQEDSKK, the collision cross section is reported as 493.09 ± 3.3 Å² (charge state: 2) and 531.43 ± 2 Å² (charge state: 3). For LLEQKTQESQK, the collision cross section by setting is: (charge state: 2) 394.71 ± 1.6 Å²; (charge state: 3) 453.32 ± 3.2 Å². As to LDHLAEKFR, the collision cross section is reported as 365.36 ± 1.5 Å² (charge state: 2) and 453.05 ± 4 Å² (charge state: 3).

SSSAGGQGSYVPLLR gave a collision cross section (charge state: 2) of 402.55 ± 0.66 Å². For FSYTSQHSDYGQR, under “charge state: 3”, the collision cross section was found to be 485.4 ± 1 Å². LGVPGLPGYPGRQGPK registered a collision cross section (charge state: 2) of 416.71 ± 0.59 Å² and a collision cross section (charge state: 3) of 493.33 ± 24 Å².

With SGGGYGGDRSSGGGYSGDR, for the setting “charge state: 3”, the collision cross section was found to be 476.79 ± 0.56 Å².

Take AQLSQYFDAVK: the collision cross section (charge state: 2) was 384.48 ± 1.1 Å². On to GETASKLQSEISR, for which the collision cross section is 404.79 ± 2.8 Å² (charge state: 2) and 463.95 ± 4.6 Å² (charge state: 3). The corresponding values for DSSPTTNSKLSALQR are 418.1 ± 2.2 Å² and 485.64 ± 4.2 Å². The matching figures for LLIVSTTPYSEKDTK: 459.72 ± 2.9 Å² and 510.79 ± 5.4 Å². The corresponding values for FRSGNYR are 328.09 ± 0.7 Å² and 402.54 ± 6.1 Å². As for GDYDLNAVR, the collision cross section (charge state: 2) is 340.54 ± 0.15 Å². Take LSTPPPLAEEEGLASR: the collision cross section runs as follows: (charge state: 2) 436.07 ± 0.65 Å²; (charge state: 3) 482.68 ± 0.86 Å². Turning to LYAVHQEGNK, the collision cross section was 357.2 ± 1.5 Å² (charge state: 2) and 449.31 ± 1.1 Å² (charge state: 3). In the case of GERGVPGER, the collision cross section came out at 324.16 ± 0.79 Å² (charge state: 2) and 410.66 ± 1.3 Å² (charge state: 3). The matching figures for VRFHNPR: 337.63 ± 0.7 Å² and 406.2 ± 6.3 Å². Regarding GEPGIPAIPGIR, the collision cross section (charge state: 2) is on record as 347.87 ± 0.23 Å². Consider HSPTLPEPGGLRLELPLSR, for which, where the note is “charge state: 3”, the collision cross section is recorded as 583.19 Å². Turning to FSAYIKNSNPALNDNLEK, the collision cross section is, setting by setting: (charge state: 2) 493.15 ± 3.7 Å²; (charge state: 3) 521.97 ± 3.2 Å².

Regarding LGPPGNPGPSGSPGPKGQK, the collision cross section by setting is: (charge state: 2) 422.18 ± 1.4 Å²; (charge state: 3) 483.14 ± 1.2 Å². In the case of TLTPASSPVSSPSK, the collision cross section (charge state: 2) is 389.93 ± 0.025 Å². With ISEILLDHGAPIQAK, the collision cross section (charge state: 2) turned out to be 447.46 ± 0.13 Å² and the collision cross section (charge state: 3) is given as 537.87 ± 1.7 Å².

In turn, GPPGPAGPSGESR registered a collision cross section (charge state: 2) of 343.88 ± 1 Å². Still for that read-out and setting: to PGLQGPR belongs 285.1 ± 4.4 Å². GPPGPPGRPGNSGIR: where the note is “charge state: 3”, the collision cross section worked out at 436.52 ± 1.7 Å². Take AAINQKLIETGER: the collision cross section is, setting by setting: (charge state: 2) 409.65 ± 1.4 Å²; (charge state: 3) 476.29 ± 7.6 Å².

On to IGAEVYHHLK, for which the collision cross section (charge state: 2) is recorded as 371.39 ± 0.54 Å² and the collision cross section (charge state: 3) is given as 435.97 ± 1.1 Å². The corresponding values for VNVEAPDVNLEGLGGKLK are 454.51 ± 2.9 Å² and 537.97 ± 2.9 Å². The matching figures for DLSTVEALQNLKNLK: 472.99 ± 2.9 Å² and 543.69 ± 1.2 Å². Regarding ASEALLKQLK, the collision cross section reads like this: (charge state: 2) 367.26 ± 1.1 Å²; (charge state: 3) 459.21 ± 3.1 Å². For the substance YIEIYVQKVNPSR, the collision cross section runs as follows: (charge state: 2) 435.38 ± 2.7 Å²; (charge state: 3) 505.68 ± 2.1 Å². For DYGNSPLHR, the collision cross section reads like this: (charge state: 2) 339.65 ± 0.48 Å²; (charge state: 3) 430.38 ± 2 Å². On to FTEYETQVK, for which the collision cross section (charge state: 2) is recorded as 363.82 ± 1.3 Å². For the setting “charge state: 3”, IQTVPASHLQQGTASGSSK displayed a collision cross section of 490.25 ± 12 Å². GNDISSGTVLSDYVGSGPPKK: the collision cross section (charge state: 3) is 543.89 ± 0.71 Å². With VGVEVPDVNIEGPEGKLK, the collision cross section by setting is: (charge state: 2) 456.21 ± 2.8 Å²; (charge state: 3) 537.32 ± 2.3 Å².

Regarding VGTASVLQPVKK, the collision cross section turned out to be 400.02 ± 0.9 Å² (charge state: 2) and 461.91 ± 3 Å² (charge state: 3).

For KDYQPGITFIVVQK, the collision cross section (charge state: 3) was 508.05 ± 1.2 Å². Consider SGKFTQQDIDEAK, for which the collision cross section is on record as 412.77 ± 2.3 Å² (charge state: 2) and 486.03 ± 4.9 Å² (charge state: 3).

As to DYSSGFGGKYGVQADR, the collision cross section is on record as 432 ± 2.6 Å² (charge state: 2) and 489.69 ± 5.9 Å² (charge state: 3). The corresponding values for VPGVGLPGVYPGGVLPGAR are 445.04 ± 0.9 Å² and 532.89 ± 0.34 Å². On to GFPGIQGRK, for which the collision cross section runs as follows: (charge state: 2) 338.49 ± 1.5 Å²; (charge state: 3) 406.74 ± 2 Å². Consider IPAASAAAMNLASAR, for which the collision cross section by setting is: (charge state: 2) 397.84 ± 0.66 Å²; (charge state: 3) 496.43 ± 0.86 Å². The matching figures for PGGEGPQCEKTTDVK: 411.04 ± 2 Å² and 465.58 ± 3.8 Å². The matching figures for DLYEPSHGAK: 358.09 ± 0.48 Å² and 429.53 ± 1.1 Å². In turn, LAEQEAHYAVR had a collision cross section (charge state: 2) of 394.57 ± 1.1 Å² and a collision cross section (charge state: 3) of 471.99 ± 1.1 Å². For the substance SLIGKVDGTSHVTGK, the collision cross section is, setting by setting: (charge state: 2) 430.43 ± 0.65 Å²; (charge state: 3) 491.82 ± 0.22 Å². The matching figures for DFAFYNPRLQGK: 408.01 ± 1.3 Å² and 473.2 ± 2.9 Å². The corresponding values for IQTKAGEATVK are 361.35 ± 0.94 Å² and 457.37 ± 4.1 Å². For the setting “charge state: 2”, HGVYNPNK returned a collision cross section of 330.7 ± 0.79 Å².

Consider ANLEKAQAELVGTADEATR, for which the collision cross section (charge state: 2) stood at 474.85 ± 3.3 Å² and the collision cross section (charge state: 3) is 519.38 ± 2.8 Å². In the case of IPQEKCILQTDVK, the collision cross section runs as follows: (charge state: 2) 428.77 ± 2.5 Å²; (charge state: 3) 470.55 ± 3.7 Å². The corresponding values for SDSGKPYYYNSQTK are 416.14 ± 3 Å² and 478.86 ± 16 Å². Under “charge state: 2”, PGNSGIR yielded a collision cross section of 278.56 ± 0.86 Å². SYHLQIVTK: the collision cross section reads like this: (charge state: 2) 344.3 ± 0.59 Å²; (charge state: 3) 447.43 ± 1.7 Å².

For the substance EEKPAVTAAPK, the collision cross section was 359.42 ± 0.68 Å² (charge state: 2) and 467.02 ± 0.22 Å² (charge state: 3). In the case of FLQEFYQDDELGKK, the collision cross section runs as follows: (charge state: 2) 448.73 ± 2.1 Å²; (charge state: 3) 492.87 ± 3.2 Å². With GDAGEPGRPGSPGK, the collision cross section is 357.76 ± 0.58 Å² (charge state: 2) and 449.7 ± 1.2 Å² (charge state: 3). For LYLPVQNK, the collision cross section (charge state: 2) was 336.72 ± 0.73 Å². Same read-out and setting: to GDAGEPGR belongs 283.75 ± 1.9 Å². As to SLEEEGAAHSGKR, the collision cross section is reported as 399.57 ± 1.8 Å² (charge state: 2) and 472.78 ± 3.7 Å² (charge state: 3).

For the setting “charge state: 2”, GNPGVGTQGPR displayed a collision cross section of 333.35 ± 8.7 Å². Regarding RGATPPAPPRR, the collision cross section (charge state: 3) was 465.11 ± 2.3 Å². AAQASDLEKIHLDEK: the collision cross section runs as follows: (charge state: 2) 447.85 ± 1.2 Å²; (charge state: 3) 506 ± 5.5 Å². Take IQNGAQGIRFIYTR: the collision cross section (charge state: 3) was 511.04 ± 0.58 Å². In the case of GSLGAQKLANTCFNEIEK, the collision cross section (charge state: 2) is recorded as 483.18 ± 2.7 Å² and the collision cross section (charge state: 3) was determined as 511.29 ± 4.4 Å². The matching figures for LGILPVGRGK: 351.11 ± 0.11 Å² and 438.91 ± 4.7 Å². The corresponding values for GTISAPGKVVTAAAQAK are 464.56 ± 3.2 Å² and 518.69 ± 4.3 Å². CSVLAAANPVYGR yielded a collision cross section (charge state: 2) of 385.24 ± 0.16 Å².

As for ASNAAVKLAESK, the collision cross section stood at 381.6 ± 0.7 Å² (charge state: 2) and 452.24 ± 3.2 Å² (charge state: 3). As to VPGALAAAKAAK, the collision cross section by setting is: (charge state: 2) 365.46 ± 0.4 Å²; (charge state: 3) 442.33 ± 1.2 Å². For PSVSTKLISK, the collision cross section runs as follows: (charge state: 2) 360.6 ± 1.3 Å²; (charge state: 3) 423.25 ± 3.8 Å². The matching figures for GGPGAPGAPGPKGESGDYK: 431.57 ± 1 Å² and 489.8 ± 6.1 Å². As to VVDLLAPYAK, under “charge state: 2”, the collision cross section is 358.2 ± 7.9 Å². In turn, AYGELPEHAK displayed a collision cross section (charge state: 2) of 366.13 ± 0.54 Å² and a collision cross section (charge state: 3) of 441.2 ± 1.1 Å².
